Numbering of substitutions follows the chain as printed. Names may count otherwise.
Experiments:
[1] = target: heat-aggregated E. coli proteins; test: biolayer interferometry (BLI); settings: value read at the end of the association phase (~60 min), read off a plot
[2] = target: T1, His-tagged luciferase, heat-aggregated on the BLI sensor (firefly, UniProt P08659 1-550 = luciferase); test: BLI; ForteBio BLItz; His-tagged luciferase aggregated on the sensor; 5 µM sHsp (preincubated 10 min at 44 °C) bound for 10 min, then buffer F or Hsp70 system (0.7 µM DnaK, 0.28 µM DnaJ, 0.21 µM GrpE, 5 mM ATP) for 1 hr; room temperature; settings: both partners purified
T1 construct: firefly luciferase, His-tagged construct of Obuchowski et al., 2019; anchoring layer attached to NTA sensors in 4.5 M urea, then aggregate formed at 44 °C; also called aggregated luciferase; luciferase aggregates; source: purified as described previously (Obuchowski et al., 2019)

[3] = target: the molecule itself; test: dynamic light scattering; 10 µM sHsp in buffer F (50 mM Tris pH 7.5, 150 mM KCl, 20 mM MgCl2, 2.5 mM DTT); oligomer size measured at 25 °C and 44 °C in repeated cycles

T1 sequence (P08659 whole entry): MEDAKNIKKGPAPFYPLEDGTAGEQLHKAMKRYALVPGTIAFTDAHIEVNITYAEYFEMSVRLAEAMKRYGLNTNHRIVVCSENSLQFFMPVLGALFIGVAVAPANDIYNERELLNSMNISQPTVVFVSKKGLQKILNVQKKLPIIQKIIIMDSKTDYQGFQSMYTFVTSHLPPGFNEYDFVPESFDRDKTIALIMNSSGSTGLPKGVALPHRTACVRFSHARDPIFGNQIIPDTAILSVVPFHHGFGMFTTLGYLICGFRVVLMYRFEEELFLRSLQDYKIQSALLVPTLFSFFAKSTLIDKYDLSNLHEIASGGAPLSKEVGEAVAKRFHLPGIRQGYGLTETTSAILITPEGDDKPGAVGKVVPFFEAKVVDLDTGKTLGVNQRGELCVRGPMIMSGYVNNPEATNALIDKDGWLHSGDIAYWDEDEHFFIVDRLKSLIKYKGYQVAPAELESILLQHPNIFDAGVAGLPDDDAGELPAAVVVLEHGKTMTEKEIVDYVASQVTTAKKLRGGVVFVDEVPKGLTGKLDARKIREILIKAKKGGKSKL

IbpA from Escherichia coli (from UniProt P0C054) Q66H; G109D
response ([1]; parent: est. 2.7): 1.5 nm

IbpA from Erwinia amylovora (from UniProt A0ABX7MII2) H67Q; D110G
response ([1]; parent: est. 0.91): 1.4 nm

B1: IbpA_(E.coli) Q66H G109D (natural protein, E. coli, UniProt P0C054 1-137, looked up)
chain: MRNFDLSPLYRSAIGFDRLFNHLENNQSQSNGGYPPYNVELVDENHYRIAIAVAGFAESELEITAHDNLLVVKGAHADEQKERTYLYQGIAERNFERKFQLAENIHVRDANLVNGLLYIDLERVIPEAKKPRRIEIN
notes: IbpA, small heat shock protein of E. coli, with AncA1-like substitutions; source: purified
binding result [2]: binds | binding result [3]: binds

B2: IbpA from Escherichia coli (natural protein, E. coli, UniProt P0C054 1-137, looked up)
chain: B1 chain with H66Q, D109G
notes: IbpA, small heat shock protein of E. coli; also called IbpA_(E. coli); IbpAEc; source: purified as described previously (Ratajczak et al., 2009)
binding result [2]: binds

— article PMC10708888, “Evolution towards simplicity in bacterial small heat shock protein system” (eLife, 2023)
